In patent US20260224701A1 (University of Texas, published 2026) one finds Kd data, which are given here for 4 molecules.

One may read the Kd as the free concentration of one partner at which half of the binding sites on the other are occupied at equilibrium, for simple one-to-one binding.

Common to all, as to experiment: biolayer interferometry (Octet), antibody captured on the probe, extracellular domain in solution
(In general: Biolayer interferometry detects binding as a change in optical thickness at a sensor tip.)

For experiment [1], the target named is T1, human 2Ig-B7-H3 extracellular domain (human, UniProt Q5ZPR3 29-466).
T1 chain: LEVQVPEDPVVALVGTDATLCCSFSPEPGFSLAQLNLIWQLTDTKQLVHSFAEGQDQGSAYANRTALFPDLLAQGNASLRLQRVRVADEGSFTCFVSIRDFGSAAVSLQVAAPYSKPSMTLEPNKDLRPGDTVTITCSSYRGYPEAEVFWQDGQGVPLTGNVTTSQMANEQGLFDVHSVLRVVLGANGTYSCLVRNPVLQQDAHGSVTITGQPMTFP

Experiment [2] addresses T2, Porcine 4Ig-B7-H3 extracellular domain (porcine, UniProt A0A287AJ27 27-466).
T2 construct: extracellular domain; Bought protein; also called Porcine 4Ig-B7H-3 protein
As for the experimental part:
(§1) The extracellular domains of the indicated 4Ig-B7-H3 and 2Ig-B7-H3 proteins were purchased from R&D systems. All proteins were validated by the vendor to be both pure and functional. KD values were determined utilizing capture biolayer interferometry (Octet, Molecular Devices) in “affinity” mode, wherein the […] antibody was captured on the tip of the probe and placed into solutions containing different concentrations of target extracellular domain.

The target in experiment [3] is T3, Cynomolgus 4Ig-B7-H3 extracellular domain (cynomolgus).
T3 construct: extracellular domain; Bought protein; also called Cynomolgus 4Ig-B7H-3 protein
Here is the method:
as §1

B1: MIL33B chimeric antibody (full-length IgG) (antibody, V domains shown)
VH: EVQLQQSGPELVKPGASVKMSCKASGYTFTSYVMHWVRQSPGQGLEGIGYINSYSDGTKYNEKFKGKATLTSDKSSSTAYMELSGLTSEDSAVYYCARWGGLGNGAMDYWGQGTSVTVSS
VL: QIVLTQSPAIMSASPGEKVTMTCSVSSSVNYMHWYQQKSGTSPKRWIYDTSKLASGVPARFSASGSGTSYSLTISSMEAEDAATYYCQQWTSNPLTFGAGTKLELKR
notes: also called Chimeric VH + VL; MIL33B-chimera
B1 displayed a Kd in experiment [1] of 13.2 nM.

B2: MIL33B-H1-hIgG1 (antibody, V domains shown)
VH: QVQLVQSGAEVKKPGASVKVSCKASGYTFTSYVMHWVRQAPGQRLEWMGYINSYSDGTKYNEKFKGRVTITSDTSASTAYMELSSLRSEDTAVYYCARWGGLGNGAMDYWGQGTLVTVSS
VL: EIVLTQSPATLSLSPGERATLSCSVSSSVNYMHWYQQKPGQAPRRLIYDTSKLASGIPARFSGSGSGTDYTLTISSLEPEDFAVYYCQQWTSNPLTFGQGTKLEIK
notes: also called AHF15945; AHF 15945
For the molecule B2, the Kd in experiment [1] stood at 21.6 nM. Against the preceding molecule, the Kd is about 1.6-fold higher.

B3: MIL33B-H2-hIgG1 (antibody, V domains shown)
VH: QVQLVQSGAEVKKPGASVKVSCKASGYTFTSYVMHWVRQAPGQRLEWMGYINSYSDGTKYNEKFKGRATITRDTSASTAYMELSSLRSEDTAVYYCARWGGLGNGAMDYWGQGTLVTVSS
VL: EIVLTQSPATLSLSPGERATLSCSVSSSVNYMHWYQQKPGQAPRRLIYDTSKLASGIPARFSGSGSGTDYTLTISSLEPEDFAVYYCQQWTSNPLTFGQGTKLEIK
notes: also called AHF15938; AHF 15938
B3 came in with a Kd in experiment [1] of 14 nM.

B4: MIL33B-H3-hIgG1 (antibody, V domains shown)
VH: QVQLVQSGAEVKKPGASVKVSCKASGYTFTSYVMHWVRQAPGQRLEWMGYINSYSDGTKYNEKFKGRVTITRDTSASTAYMELSSLRSEDTAVYYCARWGGLGNGAMDYWGQGTLVTVSS
VL: EIVLTQSPATLSLSPGERATLSCSVSSSVNYMHWYQQKPGQAPRRLIYDTSKLASGIPARFSGSGSGTDYTLTISSLEPEDFAVYYCQQWTSNPLTFGQGTKLEIK
notes: also called hMIL33B-H3; humanized MIL33B-H3
On to B4, for which the Kd in experiment [1] came out at 43.5 nM; in experiment [2], 0.559 nM; in experiment [3] it was 0.28 nM.
